Among the data in patent US20100278801A1 (published 2010) are Kd values, retold here.

The target in experiment [1] is 120-G564S/320.1. The experiment in a line: biotin-ligand binding.
Experiment [2] deals with HFD300.1 (HFD300-132K) Wild Type. Briefly: Eu-ligand saturation binding.
In a further experiment the target is HFD300.1. The experiment in a line: 125I-ligand binding.
For experiment [3], the target named is 120-G564S/320.1. Briefly: Eu-ligand binding.

B1: HB-EGF-biotin (ligand)
chain: DLQEADLDLLRVTLSSKPQALATPNKEEHGKRKKKGKGLGKKRDPCLRKYKDFCIHGECKYVKELRAPSCICHPGYHGERCHGLSL
In the case of B1, the Kd (usually a measure of binding affinity in units of concentration) with 120-G564S/320.1 [1] is 0.211 nM.

B2: Eu-NRG1β1 (ligand)
chain: SHLVKCAEKEKTFCVNGGECFMVKDLSNPSRYLCKCPNEFTGDRCQNYVMASFYKHLGIEFMEAE
B2 had a Kd in experiment [2] of 3.11 nM.

B3: NRG1β (ligand)
chain: B2 chain
In the experiment with HFD300.1, B3 gave a dissociation constant Kd of 12.1 nM.

B4: EU-EGF (ligand)
chain: NSDSECPLSHDGYCLHDGVCMYIEALDKYACNCVVGYIGERCQYRDLKWWELR
B4 had an equilibrium dissociation constant (Kd) in the experiment with 120-G564S/320.1 [3] of 0.877 nM.
